# Assay results taken from patent US20100330089A1 (Pfizer, published 2010).
# T1: Human CD20 (human) (UniProt P11836)
# T1 sequence: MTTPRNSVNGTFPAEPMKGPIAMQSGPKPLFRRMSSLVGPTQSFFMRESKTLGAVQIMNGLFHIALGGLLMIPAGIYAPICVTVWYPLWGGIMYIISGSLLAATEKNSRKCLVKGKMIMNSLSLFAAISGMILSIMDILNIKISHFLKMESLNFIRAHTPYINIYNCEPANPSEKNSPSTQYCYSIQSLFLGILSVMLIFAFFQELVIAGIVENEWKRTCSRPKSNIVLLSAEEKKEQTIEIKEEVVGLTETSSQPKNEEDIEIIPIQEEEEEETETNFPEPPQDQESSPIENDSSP
# T2: Human CD20 (human, UniProt P11836 1-297)
# T2 construct: also called Bp35
# T2 sequence: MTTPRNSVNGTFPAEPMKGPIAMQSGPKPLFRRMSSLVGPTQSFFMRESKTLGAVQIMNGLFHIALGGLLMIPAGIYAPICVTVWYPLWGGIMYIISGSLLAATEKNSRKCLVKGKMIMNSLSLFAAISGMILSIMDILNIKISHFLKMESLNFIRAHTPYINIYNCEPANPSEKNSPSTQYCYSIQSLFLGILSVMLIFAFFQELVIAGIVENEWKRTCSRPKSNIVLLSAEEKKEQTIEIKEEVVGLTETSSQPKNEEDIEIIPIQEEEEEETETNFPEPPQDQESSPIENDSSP
# What was measured:
# Human CD20 (human) [1] = molecular target: T1, Human CD20 (human); test: cell-based or functional assay
# Human CD20 (human) [2] = molecular target: T1, Human CD20 (human); test: flow cytometry on primary human B cells, binder at 10 ug/ml (first block)
# Human CD20 (human) [3] = molecular target: T1, Human CD20 (human); test: flow cytometry on primary human B cells, binder at 0.12 ug/ml (first block)
# Human CD20 (human) [4] = molecular target: T1, Human CD20 (human); test: flow cytometry on primary human B cells, binder at 0.04 ug/ml (second block)
# Human CD20 (human) [5] = molecular target: T1, Human CD20 (human); test: flow cytometry on primary human B cells, binder at 1.1 ug/ml (first block)
# Human CD20 (human) [6] = molecular target: T1, Human CD20 (human); test: flow cytometry on primary human B cells, binder at 10 ug/ml (second block)
# Human CD20 (human) [7] = molecular target: T1, Human CD20 (human); test: flow cytometry on primary human B cells, binder at 0.12 ug/ml (second block)
# Human CD20 (human) [8] = molecular target: T1, Human CD20 (human); test: flow cytometry on primary human B cells, binder at 0.37 ug/ml (first block)
# Human CD20 (human) [9] = molecular target: T1, Human CD20 (human); test: flow cytometry on primary human B cells, binder at 1.1 ug/ml (second block)
# CD20 (primary B cells) = CD20 (primary B cells) (UniProt P11836); test: flow cytometry; details: Fc fusion
# Human CD20 [10] = molecular target: T2, Human CD20; test: cell-based or functional assay
# Human CD20 [11] = molecular target: T2, Human CD20; test: flow cytometry on primary human B cells, binder at 10 ug/ml (first block)
# Human CD20 [12] = molecular target: T2, Human CD20; test: flow cytometry on primary human B cells, binder at 0.12 ug/ml (first block)
# Human CD20 [13] = molecular target: T2, Human CD20; test: flow cytometry on primary human B cells, binder at 0.04 ug/ml (second block)
# Human CD20 [14] = molecular target: T2, Human CD20; test: flow cytometry on primary human B cells, binder at 10 ug/ml (second block)
# Human CD20 [15] = molecular target: T2, Human CD20; test: flow cytometry on primary human B cells, binder at 0.12 ug/ml (second block)
# Human CD20 [16] = molecular target: T2, Human CD20; test: flow cytometry on primary human B cells, binder at 1.1 ug/ml (second block)
# Human CD20 [17] = molecular target: T2, Human CD20; test: flow cytometry on NU-DHL1, Ramos, SU-DHL4, SU-DHL5 and WSU-DLCL2 cells; confirmed by immunofluorescence on Ramos and WSU-DLCL2
# Protocol: (§1) Each of these cell lines was derived from a distinct non-Hodgkin's B-cell lymphoma patient. Briefly, increasing concentrations of CD20-binders were incubated with 100,000 BCL for 30 min at 4° C. Cells were then washed twice with PBS containing 1% BSA to remove unbound antibody and then a FITC labeled goat anti-human (H+ L) secondary antibody (100 fold diluted) was added for 30 min at 4° C. The cells were again washed twice to remove unbound secondary antibody and then resuspended in 1% formaldehyde (in PBS) with 1% BSA. Fluorescence intensity of each sample was measured using a Becton Dickinson FACSORT flow cytometer. Results are expressed as the geometric mean (GeoMean) of the fluorescent intensity.
# Human CD20 [18] = molecular target: T2, Human CD20; test: flow cytometry on five human B-lymphoma cell lines
# Protocol: as §1
molecule,measurement,setting,value
RITUXAN (rituximab) (antibody),"% lysis (CDC on Ramos cells), 0.12 ug/ml",Human CD20 (human) [1],56.5 % lysis
same,"% lysis (CDC on Ramos cells), 0.37 ug/ml",Human CD20 (human) [1],60.2 % lysis
same,"% lysis (CDC on Ramos cells), 1.1 ug/ml",Human CD20 (human) [1],57.1 % lysis
same,"% lysis (CDC on Ramos cells), 10 ug/ml",Human CD20 (human) [1],82.5 % lysis
same,"% lysis (CDC on Ramos cells), 1 nm",Human CD20 (human) [1],67.6 % lysis
same,"% lysis (CDC on Ramos cells), 4 nm",Human CD20 (human) [1],65.1 % lysis
same,"% lysis (CDC on Ramos cells), 11 nm",Human CD20 (human) [1],66.3 % lysis
same,"% lysis (CDC on Ramos cells), 100 nm",Human CD20 (human) [1],81.9 % lysis
same,MFI,Human CD20 (human) [2],199 MFI
same,MFI,Human CD20 (human) [3],106 MFI
same,MFI,Human CD20 (human) [4],43.1 MFI
same,MFI,Human CD20 (human) [5],173 MFI
same,MFI,Human CD20 (human) [6],172 MFI
same,MFI,Human CD20 (human) [7],82.3 MFI
same,MFI,Human CD20 (human) [8],137 MFI
same,MFI,Human CD20 (human) [9],93 MFI
TRU-015,EC50,CD20 (primary B cells),0.279 µg/mL
TRU-015 (Fc fusion),"% lysis (CDC on Ramos cells), 0.12 ug/ml",Human CD20 [10],16.3 % lysis
same,"% lysis (CDC on Ramos cells), 0.37 ug/ml",Human CD20 [10],38.8 % lysis
same,"% lysis (CDC on Ramos cells), 1.1 ug/ml",Human CD20 [10],56.1 % lysis
same,"% lysis (CDC on Ramos cells), 10 ug/ml",Human CD20 [10],67.7 % lysis
same,"% lysis (CDC on Ramos cells), 1 nm",Human CD20 [10],19.8 % lysis
same,"% lysis (CDC on Ramos cells), 4 nm",Human CD20 [10],26.2 % lysis
same,"% lysis (CDC on Ramos cells), 11 nm",Human CD20 [10],49.7 % lysis
same,"% lysis (CDC on Ramos cells), 100 nm",Human CD20 [10],86.1 % lysis
same,MFI,Human CD20 [11],149 MFI
same,MFI,Human CD20 [12],42.8 MFI
same,MFI,Human CD20 [13],19.9 MFI
same,MFI,Human CD20 [14],124 MFI
same,MFI,Human CD20 [15],31.4 MFI
same,MFI,Human CD20 [16],53.4 MFI
"018011 (Fc fusion, not shown: called human IgG1) EIVLTQSPATLSLSPGERATLSCRASQSVSYIVWYQQKPGQAPRLLIYAPSNLASGIPARFSGSGSGTDFTLTISSLEPEDFAVYYCQQWSFNPPTFGQGTKVEIKDGGGSGGGGSGGGGTGEVQLVQSGAEVKKPGESLKISCKGSGYSFTSYNMHWVRQMPGKGLEWMGAIYPGNGDTSYNQKFKGQVTISADKSISTAYLQWSSLKASDTAMYYCARSYYSNSYWYFDLWGRGTLVTVSS",binding result,Human CD20 [17],binds
"018008 (Fc fusion, not shown: a dimerising Fc or GST, Humanized SMIP as named without a hinge suffix) EIVLTQSPATLSLSPGERATLSCRASQSVSYMHWYQQKPGQAPRLLIYAPSNLASGIPARFSGSGSGTDFTLTISSLEPEDFAVYYCQQWSFNPPTFGQGTKVEIKDGGGSGGGGSGGGGTGEVQLVQSGAEVKKPGESLKISCKGSGYSFTSYNMHWVRQMPGKGLEWMGAIYPGNGDTSYNQKFKGQVTISADKSISTAYLQWSSLKASDTAMYYCARVVYYSNSYWYFDLWGRGTLVTVSS",binding result,Human CD20 [18],binds
"2Lm20-4 (Fc fusion, not shown: a dimerising Fc or GST, Humanized SMIP as named without a hinge suffix) EIVLTQSPATLSLSPGERATLSCRASSSVSYIVWYQQKPGQAPRLLIYAPSNLASGIPARFSGSGSGTDFTLTISSLEPEDFAVYYCQQWSFNPPTFGQGTKVEIKDGGGSGGGGSGGGGSSQVQLVQSGAEVKKPGASVKVSCKASGYTFTSYNMHWVRQAPGQGLEWMGAIYPGNGDTSYNQKFKGRVTMTRDTSTSTVYMELSSLRSEDTAVYYCARSYYSNSYWYFDLWGRGTLVTVSS",binding result,Human CD20 [18],binds
